Measured values as given in PMC8891041.

Molecular target: human parathyroid hormone type 1 receptor (hPTHR) (human) (UniProt Q03431)
Assay: radioligand binding

Chain of UniProt Q03431 (Q03431 27-593): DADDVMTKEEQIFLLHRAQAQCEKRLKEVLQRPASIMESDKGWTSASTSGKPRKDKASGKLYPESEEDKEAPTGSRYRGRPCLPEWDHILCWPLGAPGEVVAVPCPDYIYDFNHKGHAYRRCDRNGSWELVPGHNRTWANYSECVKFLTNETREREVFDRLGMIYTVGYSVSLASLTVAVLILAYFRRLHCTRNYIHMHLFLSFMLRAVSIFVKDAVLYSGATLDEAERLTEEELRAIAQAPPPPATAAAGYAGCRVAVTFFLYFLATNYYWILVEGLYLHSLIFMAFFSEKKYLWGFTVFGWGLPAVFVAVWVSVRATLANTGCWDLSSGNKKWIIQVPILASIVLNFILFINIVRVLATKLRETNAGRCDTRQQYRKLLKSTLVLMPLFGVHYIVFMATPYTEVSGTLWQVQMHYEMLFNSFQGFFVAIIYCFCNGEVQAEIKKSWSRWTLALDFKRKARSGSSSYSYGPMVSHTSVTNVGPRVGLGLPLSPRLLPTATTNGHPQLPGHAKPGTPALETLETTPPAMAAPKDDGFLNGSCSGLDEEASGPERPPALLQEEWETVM

M-PTH(1-15) (peptide)
pKi: 10.8

PTH(1-34) (peptide)
pKi: 8.26
